Data: patent US20250084169A1 (published 2025)
Changes are numbered by the printed parent chain. Names and notes keep the numbering of the source. Where two headings read alike, the source gives them in different places.

B1: Rituximab-S239D/I332E (antibody, human IgG1, kappa)
heavy: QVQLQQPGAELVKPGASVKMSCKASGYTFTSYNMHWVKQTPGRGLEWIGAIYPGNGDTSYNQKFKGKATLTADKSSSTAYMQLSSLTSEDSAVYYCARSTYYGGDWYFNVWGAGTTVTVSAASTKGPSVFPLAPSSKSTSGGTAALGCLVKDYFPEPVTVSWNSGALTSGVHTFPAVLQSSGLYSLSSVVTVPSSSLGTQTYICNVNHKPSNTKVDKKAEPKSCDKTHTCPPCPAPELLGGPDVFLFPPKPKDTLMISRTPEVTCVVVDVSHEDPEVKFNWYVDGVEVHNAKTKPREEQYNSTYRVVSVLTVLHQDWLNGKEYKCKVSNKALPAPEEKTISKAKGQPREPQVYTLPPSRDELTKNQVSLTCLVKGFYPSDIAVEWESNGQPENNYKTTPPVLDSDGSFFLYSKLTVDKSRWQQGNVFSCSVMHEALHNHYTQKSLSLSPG
light: QIVLSQSPAILSASPGEKVTMTCRASSSVSYIHWFQQKPGSSPKPWIYATSNLASGVPVRFSGSGSGTSYSLTISRVEAEDAATYYCQQWTSNPPTFGGGTKLEIKRTVAAPSVFIFPPSDEQLKSGTASVVCLLNNFYPREAKVQWKVDNALQSGNSQESVTEQDSKDSTYSLSSTLTLSKADYEKHKVYACEVTHQGLSSPVTKSFNRGEC
B2: Rc66SIDE-P16-Rc66SIDE (antibody, human IgG1, kappa)
light: B1 light
heavy: QVQLQQPGAELVKPGASVKMSCKASGYTFTSYNMHWVKQTPGRGLEWIGAIYPGNGDTSYNQKFKGKATLTADKSSSTAYMQLSSLTSEDSAVYYCARSTYYGGDWYFNVWGAGTTVTVSAASTKGPSVFPLAPSSKSTSGGTAALGCLVKDYFPEPVTVSWNSGALTSGVHTFPAVLQSSGLYSLSSVVTVPSSSLGTQTYICNVNHKPSNTKVDKKAEPKSCDKTHTCPPCPAPELLGGPDVFLFPPKPKDTLMISRTPEVTCVVVDVSHEDPEVKFNWYVDGVEVHNAKTKPREEQYNSTYRVVSVLTVLHQDWLNGKEYKCKVSNKALPAPEEKTISKAKGQPREPQVYVLPPSRDELTKNQVSLLCLVKGFYPSDIAVEWESNGQPENNYLTWPPVLDSDGSFFLYSKLTVDKSRWQQGNVFSCSVMHEALHNHYTQKSLSLSPGK
chain: CPPCPAPELLGGPDVFLFPPKPKDTLMISRTPEVTCVVVDVSHEDPEVKFNWYVDGVEVHNAKTKPREEQYNSTYRVVSVLTVLHQDWLNGKEYKCKVSNKALPAPEEKTISKAKGQPREPQVYVYPPSRDELTKNQVSLTCLVKGFYPSDIAVEWESNGQPENNYKTTPPVLDSDGSFALVSKLTVDKSRWQQGNVFSCSVMHEALHNHYTQKSLSLSPGK
B3: Rc66SIDE (antibody, human IgG1, kappa)
light: B1 light
heavy: B2 heavy
chain: B2 chain
B4: Rc66SIDE-P28-Rc66SIDE (antibody, human IgG1, kappa)
light: B1 light
heavy: B2 heavy
chain: B2 chain
B5: Rc66SIDE-P4-Rc66SIDE (antibody, human IgG1, kappa)
light: B1 light
heavy: B2 heavy
chain: B2 chain
B6: HB2174 (bispecific antibody, human IgG1, kappa)
heavy 1: QVQLVQSGGGVVQPGRSLRLSCAASGVSLPDYGVSWVRKAPGKGLEWVAVIWGSETTYYNSALKSRFTISRDNSKNTLYLQMSSLRAEDTAVYYCAKHYYYGGSFAMDYWGQGTLVTVSSASTKGPSVFPLAPSSKSTSGGTAALGCLVKDYFPEPVTVSWNSGALTSGVHTFPAVLQSSGLYSLESVVTVPSSSLGTQTYICNVNHKPSNTKVDKKVEPKSCTDWSPYADQSIKVRISLKSALGDKAYEWNDNEMYLFRSSVAYAMRQYFLKVKNQMILFGEEDVRVANLKPRISFNFFVTAPKNVSDIIPRTEVEKAIRMSRSRINDAFRLNDNSLEFLGIQPTLGPPNQPPVSTSTSPTRSMAPGAVHLPQPVSTRDKTHTCPPCPAPELLGGPSVFLFPPKPKDTLMISRTPEVTCVVVDVSHEDPEVKFNWYVDGVEVHNAKTKPREEQYNSTYRVVSVLTVLHQDWLNGKEYKCKVSNKALPAPIEKTISKAKGQPREPQVCTLPPSRDELTKNQVSLSCAVKGFYPSDIAVEWESNGQPENNYKTTPPVLDSDGSFFLVSKLTVDKSRWQQGNVFSCSVMHEALHNRFTQKSLSLSPG
heavy 2: not shown
light 1: DIQMTQSPSSLSASVGDRVTITCRASQDISKYLNWYQEKPGKAIKLLIYHTSRLHSGVPSRFSGSGSGTDFTLTISSLQPEDFATYYCQQGATLPYTFGPGTKLEIKRTVAAPSVFIFPPSDEQLKSGTASVKCLLNNFYPREAKVQWKVDNALQSGNSQESVTEQDSKDSTYSLSSTLTLSKADYEKHKVYACEVTHQGLSSPVTKSFNRGEC
light 2: QVQLQQPGAELVKPGASVKMSCKASGYTFTSYNMHWVKETPGRGLEWIGAIYPGNGDTSYNQKFKGKATLTADKSSSTAYMQLSSLTSEDSAVYYCARSTYYGGDWYFNVWGAGTLVTVSSASVAAPSVFIFPPSDEQLKSGTASVECLLNNFYPREAKVQWKVDNALQSGNSQESVTEQDSKDSTYSLSSTLTLSKADYEKHKVYACEVTHQGLSSPVTKSFNRGEC

Assays:
[1] = target: T1, recombinant human Fc gamma RIIIb (CD16b) (human, UniProt O75015 17-200)
T1 sequence (O75015 17-200 limits assumed): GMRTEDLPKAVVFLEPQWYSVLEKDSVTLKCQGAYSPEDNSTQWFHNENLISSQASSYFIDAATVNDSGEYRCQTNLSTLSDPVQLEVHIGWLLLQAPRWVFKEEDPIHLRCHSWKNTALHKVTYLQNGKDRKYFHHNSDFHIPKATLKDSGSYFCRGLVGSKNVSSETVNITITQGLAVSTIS

[2] = target: T2, recombinant human Fc gamma RIIIa (CD16a) 158F (human, UniProt P08637 17-208)
T2 sequence (P08637 17-208 limits assumed): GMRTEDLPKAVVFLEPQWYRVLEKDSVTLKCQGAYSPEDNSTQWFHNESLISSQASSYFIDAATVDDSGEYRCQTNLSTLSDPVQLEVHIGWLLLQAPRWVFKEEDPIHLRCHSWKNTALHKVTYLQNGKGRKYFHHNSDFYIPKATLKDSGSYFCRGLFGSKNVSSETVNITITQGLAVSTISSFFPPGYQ

[3] = target: T3, recombinant human Fc gamma RIIIa (CD16a) 158V (human, UniProt P08637 17-208)
T3 sequence (P08637 17-208 F176V limits assumed): as the sequence (P08637 17-208 limits assumed) above, with F160V counted along it

[4] = target: T4, recombinant human Fc gamma RI (CD64) (human, UniProt P12314 16-288)
T4 sequence (P12314 16-288 limits assumed): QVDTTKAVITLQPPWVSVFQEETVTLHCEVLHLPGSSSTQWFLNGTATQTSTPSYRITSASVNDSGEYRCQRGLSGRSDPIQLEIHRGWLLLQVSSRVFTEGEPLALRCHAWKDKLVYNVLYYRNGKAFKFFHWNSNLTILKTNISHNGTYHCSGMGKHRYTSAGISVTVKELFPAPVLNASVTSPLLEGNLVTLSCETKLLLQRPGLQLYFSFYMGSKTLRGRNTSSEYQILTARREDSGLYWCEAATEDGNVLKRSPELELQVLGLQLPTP

[5] = target: T5, recombinant human Fc gamma RIIa (CD32a) 131R (human, UniProt P12318 36-218)
T5 sequence (looked up): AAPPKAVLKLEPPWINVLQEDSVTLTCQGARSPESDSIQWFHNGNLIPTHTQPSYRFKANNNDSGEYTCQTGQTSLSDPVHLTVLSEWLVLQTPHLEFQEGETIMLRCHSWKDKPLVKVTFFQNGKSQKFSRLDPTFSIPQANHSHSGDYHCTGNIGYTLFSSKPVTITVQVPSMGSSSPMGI

[6] = target: T6, recombinant human Fc gamma RIIb/c (CD32b/c) (human, UniProt P31994 46-217)
T6 sequence (looked up): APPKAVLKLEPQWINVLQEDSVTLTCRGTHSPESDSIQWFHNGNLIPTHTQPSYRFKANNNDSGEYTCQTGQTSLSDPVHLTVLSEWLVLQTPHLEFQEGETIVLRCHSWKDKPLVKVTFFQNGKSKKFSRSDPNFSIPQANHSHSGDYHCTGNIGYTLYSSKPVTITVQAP

[7] = target: T1, recombinant human Fc gamma RIIIb (CD16b); remark: listed apart in the source
[8] = target: T2, recombinant human Fc gamma RIIIa …; remark: listed apart in the source
[9] = target: T4, recombinant human Fc gamma RI (CD64); remark: listed apart in the source
[10] = target: T5, recombinant human Fc gamma RIIa (CD32a) …; remark: listed apart in the source
[11] = target: T7, recombinant human Fc gamma RIIa (CD32a) 131H (human, UniProt P12318 36-218)
T7 sequence (looked up): T5 sequence (looked up) with R132H

[12] = target: T6, recombinant human Fc gamma RIIb/c …; remark: listed apart in the source
[13] = target: T3, recombinant human Fc gamma RIIIa …; remark: listed apart in the source
CD20 Lipoparticles = target: T8, CD20 Lipoparticles (Homo sapiens (Human), UniProt P11836 1-297)
T8 sequence: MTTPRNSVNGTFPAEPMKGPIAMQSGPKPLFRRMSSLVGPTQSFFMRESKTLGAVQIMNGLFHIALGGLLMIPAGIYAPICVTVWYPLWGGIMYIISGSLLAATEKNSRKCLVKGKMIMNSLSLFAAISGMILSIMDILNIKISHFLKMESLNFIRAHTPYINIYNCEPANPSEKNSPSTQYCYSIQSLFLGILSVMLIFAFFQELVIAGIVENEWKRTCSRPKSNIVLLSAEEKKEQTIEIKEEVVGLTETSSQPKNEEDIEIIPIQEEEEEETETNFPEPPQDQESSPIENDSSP

Row | Binder | Kd [1] [µM] | Kd [2] [nM] | Kd [3] [nM] | Kd [4] [nM] | Kd [5] [nM] | Kd [6] [nM] | Kd [7] [nM] | Kd [8] [nM] | Kd [9] [nM] | Kd [10] [nM] | Kd [11] [nM] | Kd [12] [nM] | Kd [13] [nM] | Kd (CD20 Lipoparticles) [pM]
1 | B1 | 0.0668 | 17.6 | 4.33 | 0.0266 | 76.8 | 138 | – | – | – | – | – | – | – | –
2 | B2 | – | – | – | – | – | – | < 0.001 | 2.71 | < 0.001 | 1.83 | 0.808 | 0.556 | 0.257 | < 1
3 | B3 | – | – | – | – | – | – | 163 | 76.8 | – | 202 | 255 | 253 | 46.2 | 21400
4 | B4 | – | – | – | – | – | – | 5.64 | 6.62 | 1.14 | 8.11 | 5.42 | 7.28 | 4.98 | < 1
5 | B5 | – | – | – | – | – | – | 1.05 | 3.87 | < 0.001 | 4.93 | 2.54 | 3.17 | 1.14 | < 1
6 | B6 | 8.91 | 2310 | 497 | 0.118 | 901 | 4480 | – | – | – | – | – | – | – | –
